Laboratory results as given in patent publication US20180057557A1 (University of Pennsylvania, published 2018).
Values belong to the binder of their own block, whether it stands above or below them.

Target: T1, recombinant folate receptor alpha protein (immobilized) (UniProt P15328 25-233, limits assumed)
T1 construct: also called FRa
Test: binding of GFP+ IR T cells to immobilized recombinant protein (FIG. 3A)

T1 sequence (P15328 25-233 limits assumed): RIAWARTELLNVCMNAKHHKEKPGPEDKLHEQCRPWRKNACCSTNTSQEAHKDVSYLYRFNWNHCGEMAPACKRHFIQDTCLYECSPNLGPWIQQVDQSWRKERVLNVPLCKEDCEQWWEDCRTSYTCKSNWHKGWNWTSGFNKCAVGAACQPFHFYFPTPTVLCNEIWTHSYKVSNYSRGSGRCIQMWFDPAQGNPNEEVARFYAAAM

binding result: no binding
B1: Anti-FSHRb33-53FSH-28z immunoreceptor (on primary human T cells) (other)
chain: not shown
notes: also called anti-FSHR (33-53)-28z IR; Anti-FSHR(33-53)-28z

binding result: no binding
B2: Anti-FSHRb51-65FSH-28z immunoreceptor (on primary human T cells) (other, not shown: large carriers)
chain: not shown
notes: Chimeric immunoreceptor on transduced primary human T cells; also called anti-FSHR (51-65)-28z IR; Anti-FSHR(51-65)-28z
